The values below come from US20080089862.

In this data set the test system is engineered beta-galactosidase reporter protein with the NS3-cleavable NS5A/B site between residues 2.

“MBP-scNS3mut (inactive mutant S-1165-A NS3)” gave a β-galactosidase units (ONPG hydrolysis, Miller units), pMGT15 of 160 Miller units.

With “MBP-scNS3 (E. coli maltose binding protein fused to the NS4A peptide followed by the NS3 protease domain)”, the β-galactosidase units (ONPG hydrolysis, Miller units), pEB13-lacZ-NS5A/B + pMALc-NN-scNS3 was found to be 20 Miller units and the β-galactosidase units (ONPG hydrolysis, Miller units), pMGT14 was found to be 60 Miller units.
